# From the supplement of paper PMC7125110
# ± gives the standard error. For some assays here: This sample holds only a part of the variants without activity.
# B1: glmS ribozyme (parent)
# chain: AUAAAAGCGCCAGAACUACAGAAAUGUAGUUGACGAGGAGGAGGUUUAUCGAAUUUUCGGCGGAUGCCUCCAAA
# Tests used:
# Settings in all cases: with glucosamine-6-phosphate
# glucosamine-6-phosphate [1] = variants of: B1; test: kcat; higher = faster cleavage; RNA array
# Summary of the method: (§1)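 Glucosamine-6-phosphate, from 40 μM to 10 mM in HEPES/KCl/Mg(OAc)2 buffer, was flowed over sequenced MiSeq chips carrying barcoded ribozyme variants transcribed in situ by E. coli RNA polymerase. A hybridised Cy3 probe tracked the variants at 37 °C as tiles were imaged over ~14 h. kobs, kcat and KM were obtained by fitting normalised per-tile medians to exponential decays and then applying weighted Michaelis–Menten fits across concentrations.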
# glucosamine-6-phosphate [2] = variants of: B1; test: KM; higher = weaker cofactor use; RNA array
# Summary of the method: as §1
# glucosamine-6-phosphate [3] = variants of: B1; test: self-cleavage kobs at 40 uM GlcN6P; higher = faster cleavage; RNA array
# Summary of the method: as §1
# glucosamine-6-phosphate [4] = variants of: B1; test: self-cleavage kobs at 160 uM GlcN6P; higher = faster cleavage; RNA array
# Summary of the method: as §1
# glucosamine-6-phosphate [5] = variants of: B1; test: self-cleavage kobs at 640 uM GlcN6P; higher = faster cleavage; RNA array
# Summary of the method: as §1
# glucosamine-6-phosphate [6] = variants of: B1; test: self-cleavage kobs at 2500 uM GlcN6P; higher = faster cleavage; RNA array
# Summary of the method: as §1
# glucosamine-6-phosphate [7] = variants of: B1; test: self-cleavage kobs at 10000 uM GlcN6P; higher = faster cleavage; RNA array
# Summary of the method: as §1
Variant,kcat (glucosamine-6-phosphate [1]),KM (glucosamine-6-phosphate [2]),self-cleavage kobs at 40 uM GlcN6P (glucosamine-6-phosphate [3]),self-cleavage kobs at 160 uM GlcN6P (glucosamine-6-phosphate [4]),self-cleavage kobs at 640 uM GlcN6P (glucosamine-6-phosphate [5]),self-cleavage kobs at 2500 uM GlcN6P (glucosamine-6-phosphate [6]),self-cleavage kobs at 10000 uM GlcN6P (glucosamine-6-phosphate [7])
U65A C67G,0.000463 ± 7.8e-05 s⁻¹,958 ± 270 µM,2.9e-05 ± 8.7e-06 s⁻¹,6.44e-05 ± 9.1e-06 s⁻¹,0.000173 ± 2.2e-05 s⁻¹,0.000422 ± 6.2e-05 s⁻¹,0.000386 ± 6.4e-05 s⁻¹
U65A C67U,0.00212 ± 0.00035 s⁻¹,1260 ± 320 µM,7.1e-05 ± 8.1e-06 s⁻¹,0.00022 ± 2.8e-05 s⁻¹,0.000793 ± 8.5e-05 s⁻¹,0.00117 ± 0.00013 s⁻¹,0.00225 ± 0.00023 s⁻¹
A64U C70U,0.00015 ± 1.9e-05 s⁻¹,1510 ± 510 µM,,,5.13e-05 ± 5.8e-06 s⁻¹,7.86e-05 ± 8.2e-06 s⁻¹,0.000139 ± 9.8e-06 s⁻¹
G62A C70G,4.83e-05 ± 2.2e-05 s⁻¹,,< 1e-05 s⁻¹,,4.71e-05 ± 1.5e-05 s⁻¹,,< 1e-05 s⁻¹
U69C C70A,5.97e-05 ± 1.3e-05 s⁻¹,,,,7.51e-05 ± 2e-05 s⁻¹,4.46e-05 ± 2.2e-05 s⁻¹,5.64e-05 ± 1.2e-05 s⁻¹
C67A C71A,0.000401 ± 8.3e-05 s⁻¹,,4.21e-05 ± 1.2e-05 s⁻¹,,0.00013 ± 4.6e-05 s⁻¹,0.000277 ± 4.8e-05 s⁻¹,0.000361 ± 4.3e-05 s⁻¹
U65G U69C,0.00467 ± 0.0019 s⁻¹,,,0.000177 ± 4.5e-05 s⁻¹,0.000431 ± 8.3e-05 s⁻¹,0.00108 ± 0.00019 s⁻¹,0.00297 ± 0.0005 s⁻¹
G63A C71G,2.96e-05 ± 9.4e-06 s⁻¹,,< 1e-05 s⁻¹,,,,
G66U C70G,0.000127 ± 1.1e-05 s⁻¹,550 ± 180 µM,,3.86e-05 ± 1.7e-05 s⁻¹,5.98e-05 ± 1.4e-05 s⁻¹,0.000112 ± 1.7e-05 s⁻¹,0.000117 ± 1.9e-05 s⁻¹
G66C U69C,0.000157 ± 7.2e-05 s⁻¹,,,,7.5e-05 ± 2.8e-05 s⁻¹,6.79e-05 ± 1.5e-05 s⁻¹,0.000137 ± 2.8e-05 s⁻¹
C67U C71A,0.000182 ± 3.8e-05 s⁻¹,,,6.95e-05 ± 1.8e-05 s⁻¹,6.34e-05 ± 9e-06 s⁻¹,0.000131 ± 1.6e-05 s⁻¹,0.000168 ± 2.2e-05 s⁻¹
A64G C71A,0.000799 ± 8.2e-05 s⁻¹,1410 ± 280 µM,,7.29e-05 ± 1.4e-05 s⁻¹,0.000265 ± 3.8e-05 s⁻¹,0.00059 ± 7.4e-05 s⁻¹,0.000652 ± 7.6e-05 s⁻¹
U65A C68U,0.000403 ± 0.00012 s⁻¹,,3.81e-05 ± 8.7e-06 s⁻¹,0.000111 ± 1.8e-05 s⁻¹,0.000186 ± 2.8e-05 s⁻¹,0.000287 ± 4.2e-05 s⁻¹,0.000655 ± 8.7e-05 s⁻¹
C67U C68A,4.58e-05 ± 9.2e-06 s⁻¹,,,,4.09e-05 ± 9.8e-06 s⁻¹,5.66e-05 ± 7.5e-06 s⁻¹,2.96e-05 ± 8.7e-06 s⁻¹
C67U C68G,2.52e-05 ± 6.7e-06 s⁻¹,,,,3.49e-05 ± 1.2e-05 s⁻¹,2.57e-05 ± 1.2e-05 s⁻¹,
A64C U69G,1.56e-05 ± 5e-06 s⁻¹,,< 1e-05 s⁻¹,,,,
A64C C68U,< 1e-05 s⁻¹,,< 1e-05 s⁻¹,< 1e-05 s⁻¹,,,< 1e-05 s⁻¹
G66A,0.0375 ± 0.011 s⁻¹,2780 ± 890 µM,0.00059 ± 1.2e-05 s⁻¹,0.0016 ± 6.7e-05 s⁻¹,0.00697 ± 0.0004 s⁻¹,0.016 ± 0.00099 s⁻¹,0.0316 ± 0.0015 s⁻¹
G66U,0.00275 ± 0.00056 s⁻¹,2210 ± 580 µM,5.79e-05 ± 1.2e-06 s⁻¹,0.000159 ± 5.1e-06 s⁻¹,0.00057 ± 1.2e-05 s⁻¹,0.00179 ± 6.8e-05 s⁻¹,0.00225 ± 6.3e-05 s⁻¹
G66C,0.000832 ± 7.4e-05 s⁻¹,1470 ± 210 µM,2.55e-05 ± 1.8e-06 s⁻¹,8.08e-05 ± 2.4e-06 s⁻¹,0.000244 ± 6.2e-06 s⁻¹,0.000709 ± 3.8e-05 s⁻¹,0.000712 ± 1.8e-05 s⁻¹
A64C C71U,0.00012 ± 8.4e-06 s⁻¹,2400 ± 500 µM,,,,6.58e-05 ± 1.3e-05 s⁻¹,9.59e-05 ± 1.1e-05 s⁻¹
G66U C71G,8.21e-05 ± 2.6e-06 s⁻¹,2320 ± 240 µM,,,,4.34e-05 ± 1.2e-05 s⁻¹,6.65e-05 ± 1.1e-05 s⁻¹
U65C C71G,4.3e-05 ± 1.5e-05 s⁻¹,,< 1e-05 s⁻¹,,,8.15e-05 ± 1.6e-05 s⁻¹,3.44e-05 ± 8.1e-06 s⁻¹
C70A C71A,5.3e-05 ± 3.2e-06 s⁻¹,181 ± 74 µM,,,4.65e-05 ± 9.4e-06 s⁻¹,4.82e-05 ± 7.4e-06 s⁻¹,5.11e-05 ± 9.4e-06 s⁻¹
G66C C67A,0.000183 ± 3e-05 s⁻¹,2370 ± 860 µM,,,3.04e-05 ± 1.2e-05 s⁻¹,0.000107 ± 1.6e-05 s⁻¹,0.000137 ± 2.5e-05 s⁻¹
U65A C71U,0.00196 ± 0.00076 s⁻¹,,0.000139 ± 2.2e-05 s⁻¹,0.000277 ± 4.1e-05 s⁻¹,0.00117 ± 0.00012 s⁻¹,0.0011 ± 0.0002 s⁻¹,0.00301 ± 0.00053 s⁻¹
G66U C67U,0.000913 ± 3.1e-05 s⁻¹,1130 ± 66 µM,3.44e-05 ± 7.1e-06 s⁻¹,0.00011 ± 1.3e-05 s⁻¹,0.000333 ± 4.2e-05 s⁻¹,0.000607 ± 8.4e-05 s⁻¹,0.000831 ± 7.9e-05 s⁻¹
C67A C68U,0.000125 ± 1.7e-05 s⁻¹,497 ± 200 µM,,3.25e-05 ± 7.3e-06 s⁻¹,6.61e-05 ± 5.3e-06 s⁻¹,0.000126 ± 9.8e-06 s⁻¹,0.000106 ± 1e-05 s⁻¹
C67A C68G,4.23e-05 ± 1e-05 s⁻¹,,,4.13e-05 ± 1.5e-05 s⁻¹,5.98e-05 ± 1.7e-05 s⁻¹,5.59e-05 ± 1.3e-05 s⁻¹,2.51e-05 ± 1.1e-05 s⁻¹
